One molecule from US20250361297A1, “ANTI- SIGLEC-15 BINDING MOLECULES AND METHODS OF USE” (ADAPTAM THERAPEUTICS, S.L., priority 2024, published 2025) can be followed below.

One test has as its target T1, human Siglec-15 (Homo sapiens, UniProt Q6ZMC9).
T1 construct: expressed in transfected cells
T1 sequence (Q6ZMC9 20-328): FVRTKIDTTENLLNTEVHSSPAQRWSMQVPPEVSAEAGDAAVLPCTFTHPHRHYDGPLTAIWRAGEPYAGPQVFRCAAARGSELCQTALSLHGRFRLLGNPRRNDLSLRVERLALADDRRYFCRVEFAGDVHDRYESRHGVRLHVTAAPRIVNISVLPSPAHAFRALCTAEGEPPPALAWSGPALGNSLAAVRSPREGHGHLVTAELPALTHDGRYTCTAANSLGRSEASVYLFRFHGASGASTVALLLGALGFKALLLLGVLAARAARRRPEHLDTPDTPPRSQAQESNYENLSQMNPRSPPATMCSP
As to the kind of experiment: Competitive flow cytometry assay with benchmark antibodies. The format is binding. As for the experimental part:
Epitope mapping assay by Flow cytometry: Competition with benchmark mouse IgG antibodies: 50,000 cells/well of THP-1 S15 OE were added to a round bottom 96 well plate, and centrifuged at 450×G for 5 minutes, and the supernatant was discarded. Human anti-siglec-15 IgG antibodies (starting at 198 nM, 3-fold serial dilution in staining buffer) were added to 100 μl of staining buffer and cells were resuspended with it and incubated for 40 minutes on ice. 100 μl of staining buffer were added to wells, centrifuged at 450× G for 5 minutes and the supernatants discarded. Benchmark mouse IgG antibodies were diluted at 33.3 nM and cells resuspended in 100 μl of the mix and incubated for 40 minutes on ice. Then, 100 μl of staining buffer were added to wells, centrifuged at 450×G for 5 minutes and the supernatants discarded. The secondary antibody anti-mouse IgG-Alexa647 was prepared at 1:200 dilution in 100 μl of staining buffer and added to each well, and cells were incubated for 40 minutes on ice. Cells were washed with 100 μl of staining buffer and centrifuged at 450×G for 5 minutes to discard the supernatant. Cells were resuspended in 150 μl of staining buffer and acquired in a flow cytometer.

Test [1] deals with recombinant cynomolgus Siglec-15 protein. The experiment in a line: ELISA binding to recombinant cynomolgus Siglec-15 protein. Also noted: species or system cynomolgus monkey. The note with it: ELISA (FIG. 11B). The method, then:
Binding to human, cynomolgus and mouse Siglec-15 by ELISA: 96-well micro plates were coated with 50 μl of 2 μg/ml cynomolgus Siglec-15-his protein (Bonopusbio, CW70-50 ug), or 2 μg/ml mouse Siglec-15-his protein (Bonopusbio, CW71-50 ug), or 2 μg/ml human Siglec-15-his protein (Bonopusbio, CW37-50 ug) in carbonate/bicarbonate buffer (pH 9.6) overnight at 4° C. ELISA plates were washed once with wash buffer (PBS+0.1% v/v Tween-20, PBST) and then blocked with 200 μl/well blocking buffer (3% w/v non-fatty milk in PBST) 1 hour at room temperature. Plates were washed 3 times and incubated with […] serially diluted anti-Siglec-15 antibodies of the disclosure or controls (starting at 198 nM, 3-fold serial dilution in PBST with 1% w/v non-fatty milk) for 2 hours at room temperature. ELISA plates were washed 3 times again and incubated with Peroxidase Goat anti-Human IgG Fc Secondary Antibody (100 μl, 1:5000 dilution in PBST buffer, A18817 Thermo Scientific) for 1 hour at room temperature. After another 3 washes, plates were incubated with 100 μl/well TMB (N301, Thermo Scientific). The reaction was stopped 2 minutes later at room temperature with 50 μl of STOP solution (N600, Thermo Scientific), and the absorbance of each well was read on a NIVO microplate reader at 450. OD values were plotted against antibody concentration. Data was analyzed using Graphpad Prism software.
In general terms: An ELISA detects its analyte on a solid surface through an enzyme-linked reagent.

In the next test the test system is osteoclast activation. As to the kind of experiment: Osteoclast activation in vitro (CTX-I in culture medium). The format is cell-based. The note with it: relative to baseline; control odanacatib 1 μM (FIG. 47).
Test [2] has as its target T2, mutant version of Siglec-15 (R143A) (Homo sapiens, UniProt Q6ZMC9, R143A).
T2 construct: expressed in transfected cells; host or cells: HEK293T
T2 sequence (Q6ZMC9 20-328 R143A): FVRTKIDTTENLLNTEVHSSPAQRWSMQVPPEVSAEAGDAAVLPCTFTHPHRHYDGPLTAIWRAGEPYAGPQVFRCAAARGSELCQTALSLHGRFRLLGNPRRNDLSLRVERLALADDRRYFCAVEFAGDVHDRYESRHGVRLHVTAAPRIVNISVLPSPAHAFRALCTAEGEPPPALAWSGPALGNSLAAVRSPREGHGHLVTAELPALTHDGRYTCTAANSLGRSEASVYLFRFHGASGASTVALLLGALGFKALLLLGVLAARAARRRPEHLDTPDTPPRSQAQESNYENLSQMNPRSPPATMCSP
The experiment in a line: Flow cytometry binding to HEK293T cells expressing mutant Siglec-15 (R143A). The note with it: flow cytometry (FIG. 20, FIG. 21). As for the experimental part:
Assessment of the binding of anti-Siglec-15 antibodies to HEK293T cells expressing full length human Siglec-15, or mutant human Siglec-15 (R143A) or the domain 2 of human Siglec-15 by Flow cytometry: Siglec-15+, Siglec-15+R143A, and Siglec-15 Domain 2 (D2) HEK293T cells were detached using tryple and washed once with PBS, resuspended in 1× flow cytometry buffer (PBS with 1% FBS) at approximately 1-2×10^6 cells/mL. Then, anti-Siglec-15 mAbs were added to the cell suspension at the desired concentration, starting at 10 μg/mL and performing 1/3 dilutions. Cells were incubated with the indicated antibodies for 30-60 minutes at 4° C. in the dark to prevent degradation of the fluorescent signal. After the primary antibody incubation, cells were washed twice with PBS or flow cytometry buffer by centrifuging at 300-500× g for 5 minutes and the pellet resuspended in fresh buffer. The following antibody was added: anti-human IgG-PE at a 1:500 dilution. Cells were incubated with the secondary antibody for 30 minutes at 4° C. in the dark. Finally, cells were washed twice with PBS or flow cytometry buffer to remove any excess secondary antibody and acquired in a flow cytometer.

Chain of recombinant cynomolgus Siglec-15 protein (as listed by the source): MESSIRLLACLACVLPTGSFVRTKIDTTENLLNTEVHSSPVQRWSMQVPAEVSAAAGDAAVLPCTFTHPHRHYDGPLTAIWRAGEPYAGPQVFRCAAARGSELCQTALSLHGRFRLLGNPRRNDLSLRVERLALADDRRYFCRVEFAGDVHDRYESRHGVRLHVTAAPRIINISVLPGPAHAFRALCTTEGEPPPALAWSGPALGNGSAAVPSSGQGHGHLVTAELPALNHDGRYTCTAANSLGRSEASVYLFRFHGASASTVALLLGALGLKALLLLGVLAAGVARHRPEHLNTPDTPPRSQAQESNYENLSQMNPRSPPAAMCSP

B1: S15B1: parental mouse anti-Siglec-15 monoclonal antibody from hybridoma; VH SEQ ID NO: 18, VL SEQ ID NO: 19 (antibody, V domains shown)
VH: QVQLQQSGPELVKPGASVKISCKASGYAFSSSWMNWVKQRPGKGLEWIGRIYPGHGETNYNGKFKDKATVTADKSSSTTYMQLSSLTSEDSAVYFCARVDNSDPYYFDYWGQGTTLTVSS
VL: DIVLTQSPASLAVSLGQRATISCRASKSVSTSGYSYMHWYQQKPGQPPKLLIYLASNLESGVPARFSGSGSGTDFTLNIHPVEEEDAATYYCQHGRELPFTFGSGTKLEIK
modifications: Clone S15B1 VH; Clone S15B1 VL
B1: the “inhibition of binding of 5G12 (benchmark 1)” value in the test with human Siglec-15 (competitive flow cytometry (FIG. 18A)) is on record as “outperformed A2A5C7E8”. In the test with human Siglec-15 (competitive flow cytometry (FIG. 18B)), the “inhibition of binding of A2A5C7E8 (benchmark 2)” value was “outperformed 5G12”. Besides, the “extent of binding to cynomolgus Siglec-15 relative to 5G12” value in test [1] is on record as “higher extent than 5G12”. Moreover, the “effect on osteoclast activation (CTX-I)” value in the test on osteoclast activation is “did not significantly affect”. Further, the “binding to HEK293T cells expressing mutated Siglec-15 (R143A)” value in test [2] was “demonstrated binding”.
